T1: human CCR7 (NIH3T3.hCCR7 cells) (Homo sapiens, UniProt P32248)
T1 construct: Full length human, cyno and mouse CCR7 genes were synthesized; expressed in transfected cells; host or cells: NIH/3T3 (retroviral transduction)
T1 sequence (P32248 25-378): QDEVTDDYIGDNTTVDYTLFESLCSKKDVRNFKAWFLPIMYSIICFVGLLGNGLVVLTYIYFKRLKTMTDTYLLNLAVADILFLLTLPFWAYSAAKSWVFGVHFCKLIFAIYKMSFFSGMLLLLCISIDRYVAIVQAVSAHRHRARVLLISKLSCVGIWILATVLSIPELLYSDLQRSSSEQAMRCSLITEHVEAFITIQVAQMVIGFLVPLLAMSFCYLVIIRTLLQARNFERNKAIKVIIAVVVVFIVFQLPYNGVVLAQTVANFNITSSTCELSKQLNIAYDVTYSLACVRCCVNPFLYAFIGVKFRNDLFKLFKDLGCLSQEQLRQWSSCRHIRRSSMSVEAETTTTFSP

B1: 674J13.CysMab.DAPA.AURIX2 (conjugate)
heavy: DVQLQESGPGLVKPSQTLSLTCTVSGYSITSGYSWHWIRQHPGKGLEWMAHIHSSGSTNYNPSLKSRITISRDTSKNQFSLKLSSVTAADTAVYYCARGGVQAFAYWGQGTLVTVSSASTKGPSVFPLAPSSKSTSGGTAALGCLVKDYFPCPVTVSWNSGALTSGVHTFPAVLQSSGLYSLSSVVTVPSSSLGTQTYICNVNHKPSNTKVDKRVEPKSCDKTHTCPPCPAPELLGGPSVFLFPPKPKDTLMISRTPEVTCVVVAVSHEDPEVKFNWYVDGVEVHNAKTKPREEQYNSTYRVVSVLTVLHQDWLNGKEYKCKVSNKALAAPIEKTISKAKGQPREPQVYTLPPSREEMTKNQVSLTCLVKGFYPCDIAVEWESNGQPENNYKTTPPVLDSDGSFFLYSKLTVDKSRWQQGNVFSCSVMHEALHNHYTQKSLSLSPGK
light: EIVLTQSPATLSASPGERVTMSCSASSSVIYMHWYQQKPGQAPRRWIYDTSKLASGVPARFSGSGSGTDYTLTISSMEPEDAAVYYCQQWSSNPLTFGQGTKLEIKRTVAAPSVFIFPPSDEQLKSGTASVVCLLNNFYPREAKVQWKVDNALQSGNSQESVTEQDSKDSTYSLSSTLTLSKADYEKHKVYACEVTHQGLSSPVTKSFNRGEC
B2: 121G12 humanized CysMab: humanized anti-CCR7 antibody 121G12, CysMab, Fc wild type (antibody, V domains shown)
VH: EVQLVESGGGLVKPGGSLRLSCAASGFTFSTYAMSWVRQAPGKGLEWVATISDAGSYSYYPDNVKGRFTISRDNAKNSLYLQMNSLRAEDTAVYYCARRGSRYEEYYVMDYWGQGTTVTVSS
VL: EIVLTQSPATLSVSPGERVTLSCRASQSISNNLHWYQQKPGQAPRLLIKYASQSISGIPARFSGSGSGTDFTLTISSVEPEDFGVYFCQQSSSWLTFGQGTKLEIK

Key:
DEL = assay: ADC cell viability assay (CellTiter-Glo, four days); type: cell-based; conditions: CCR7 receptor levels ~100,000
Protocol: (§1) Cytotoxic effects after binding of directly conjugated antibodies (ADCs) with various payloads and their internalization into CCR7(+) cells were studied by assessing cell viability after four days of treatment. Three fold dilutions of the ADCs were added to 384-well bottom white plates in triplicates ([…]). […] Cells were harvested (adherent cells were detached with Accutase) and resuspended to approximately 2×10^4 cells/ml. Cells were added to 384-well plates on top of the antibody (20 μl/well). The plates were incubated for four days at 37° C. and 5% CO2. Subsequently, 20 µl/well of CellTiter-Glo solution (CellTiter-Glo® Luminescent Cell Viability Assay; Promega, #G7571) was prepared and added to the cells. Cell viability was determined by the luminescence signal, which was measured after 10 min of incubation at 22° C. and 400 rpm with the Envision reader. IC50 values were calculated using the Graphpad Prism software.

KE97 = assay: as above; type: cell-based; conditions: KE97, CCR7 receptor levels ~100,000
Protocol: as §1

DND-41 = assay: as above; type: cell-based; conditions: DND-41 (T cell leukemia), CCR7 receptor levels 1,700
Protocol: as §1
(§2) To assess the ADCs for target-specificity and receptor-level dependency, ADC activity was tested across cell lines with different CCR7 receptor levels. […] Cell lines were chosen based on similar sensitivity to payload.

SR786 = assay: as above; type: cell-based; conditions: SR786, CCR7 receptor levels ~28,000
Protocol: as §1, §2

CML-T1 = assay: as above; type: cell-based; conditions: CML-T1, CCR7 receptor levels ~29,000
Protocol: as §1, §2

NCI-H82 = assay: as above; type: cell-based; conditions: NCI-H82 (Small cell lung cancer), CCR7 receptor levels 0
Protocol: as §1, §2

[1] = test system: CCR7 and CD20 expressing JVM2 cells; assay: surrogate ADCC reporter assay (Jurkat-V158 effector cells); type: cell-based; conditions: JVM2 target cells and Jurkat-V158 effector cells
Protocol: Capacity of candidate antibodies to mediate ADCC was assessed using a surrogate ADCC reporter assay. CCR7 and CD20 expressing JVM2 cells were used as target cells. JVM2 cells were washed and re-suspended at 8×10^4 cells/ml cells/ml. Effector cells in this assay were a Jurkat cell line stably expressing CD16V158 and an NFAT dependent luciferase reporter (Jurkat-V158); expression of luciferase is a surrogate for canonical ADCC signaling through CD16. Briefly, Jurkat-V158 cells grown in suspension were spun down to remove spent media, the pellet was resuspended in assay media and adjusted to 1.6×10^6 cells/ml cells/mL. Mix equal volumes of effector and target cells to make a master mix of cells yielding a target to effector cell ratio of 1:5 or 1:20. A titration of antibody was diluted in assay media with a final top concentration of 50 ug/mL in the assay well. 12.5 uL of Ab solution was added to a 384 well round bottom plate and then 12.5 ul of the master cell mix was added. Antibody and cells were mixed well by pipetting and incubated for 4 hours at 37° C. in 5% CO2. Following incubation, 15 uL of Bright Glo substrate (Promega #G7572) was added to each well and shaken for 5 min at RT at 1050 rpm. Luminescent signal was read on the Envision plate reader (Perkin Elmer). […]

CCR8 (CHO-CCR8) = molecular target: T2, CCR8 (CHO-CCR8) (Homo sapiens, UniProt P51685); assay: FACS binding, selectivity (CCR7 paralogs)
T2 construct: expressed in transfected cells; host or cells: CHO
T2 sequence (P51685 whole entry, species assumed): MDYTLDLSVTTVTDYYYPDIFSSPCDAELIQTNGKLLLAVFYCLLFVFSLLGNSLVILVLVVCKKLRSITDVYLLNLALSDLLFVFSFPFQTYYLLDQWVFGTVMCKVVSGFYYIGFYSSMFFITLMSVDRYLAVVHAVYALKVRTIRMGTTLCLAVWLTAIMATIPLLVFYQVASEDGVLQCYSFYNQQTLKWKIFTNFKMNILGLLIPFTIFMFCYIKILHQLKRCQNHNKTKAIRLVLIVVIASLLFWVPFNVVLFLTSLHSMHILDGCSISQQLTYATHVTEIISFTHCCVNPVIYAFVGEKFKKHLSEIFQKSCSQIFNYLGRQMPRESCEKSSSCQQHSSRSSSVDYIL
Protocol: (§3) The affinity of various antibodies and ADCs to CCR7 and its species orthologues was determined using FACS. Purified IgGs were titrated to determine EC50 values for binding to cell surface expressed CCR7.
(§4) For this purpose, CCR7 positive cells were harvested (adherent cells were detached with Accutase), washed twice with FACS buffer (PBS/3% FCS/0.02% sodium azide) and diluted to approximately 2×10^6 cells/ml in FACS buffer. All subsequent steps were done on ice to prevent internalization of the receptor. 100 μl cell suspension/well were transferred into 96-well U-bottom plates (Falcon). 2×10^5 cells/well were incubated with a serial dilution of antibody concentrations of the anti-CCR7 antibody-of-interest ranging across several logs, starting at a high of 100 nM for 60 minutes at 4° C., gently shaking. […] After a final wash, cells were resuspended in 100 μl of FACS buffer containing 0.2 μg/ml DAPI followed by readout on the flow cytometry machine (BD LSRFortessa Cell Analyzer; Cat #647177). Mean fluorescence intensity (MFI) of live, single cells was calculated in Flowjo 10.0.8 and exported into Graphpad Prism6 for EC50 determination.
(§5) Selectivity was assessed by measuring apparent binding affinities to isogenic cell pairs engineered to overexpress CCR7 as well as cell lines expressing CCR7 paralogs, e.g., CCR9, CCR6, CXCR4 and CCR8.

CXCR4 (HEK293-CXCR4) = molecular target: T3, CXCR4 (HEK293-CXCR4) (Homo sapiens, UniProt P61073); assay: FACS binding, selectivity (CCR7 paralogs)
T3 construct: expressed in transfected cells; host or cells: HEK293
T3 sequence (P61073 whole entry, species assumed): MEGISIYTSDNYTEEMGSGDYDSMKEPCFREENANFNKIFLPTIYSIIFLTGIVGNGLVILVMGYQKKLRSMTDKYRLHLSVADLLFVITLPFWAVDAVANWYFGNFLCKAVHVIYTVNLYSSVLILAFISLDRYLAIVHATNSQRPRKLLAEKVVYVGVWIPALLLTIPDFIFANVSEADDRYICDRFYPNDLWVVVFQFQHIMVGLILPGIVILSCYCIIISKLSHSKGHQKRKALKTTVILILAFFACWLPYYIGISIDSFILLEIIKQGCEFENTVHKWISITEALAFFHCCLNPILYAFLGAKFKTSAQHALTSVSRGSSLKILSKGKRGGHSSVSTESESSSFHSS
Protocol: as §3, §4, §5

[2] = test system: PF382 cells (CCR7−/CCR9+/CCR6+); assay: FACS binding, selectivity
Protocol: as §3, §4, §5

NIH3T3 cells = assay: FACS binding, selectivity
Protocol: as §3, §4, §5

[3] = molecular target: T1, human CCR7 (NIH3T3.hCCR7 cells); assay: FACS binding to cell surface expressed CCR7
Protocol: as §3, §4
Selectivity was assessed by measuring apparent binding affinities to isogenic cell pairs engineered to overexpress CCR7 as well as cell lines expressing CCR7 paralogs, e.g., CCR9, CCR6, CXCR4 and CCR8. […]

| Molecule | AMAX, cell viability assay (DEL) | AMAX, cell viability assay (KE97) | AMAX, cell viability assay (DND-41) | AMAX, cell viability assay (SR786) | AMAX, cell viability assay (CML-T1) | ADC activity in cell viability assay; IC50 (nM) (NCI-H82) | ADCC activity; IC50 (nM) [1] | Apparent FACS binding (at 5 ug/ml) (CCR8 (CHO-CCR8)) | Apparent FACS binding (at 5 ug/ml) (CXCR4 (HEK293-CXCR4)) | Apparent FACS binding (at 5 ug/ml) [2] | Apparent FACS binding (at 5 ug/ml) (NIH3T3 cells) | Apparent FACS binding (at 5 ug/ml) [3] |
| --- | --- | --- | --- | --- | --- | --- | --- | --- | --- | --- | --- | --- |
| B1 | > 95% | > 95% | <20% AMAX | 90% | 60% | No killing | – | – | – | – | – | – |
| B2 | – | – | – | – | – | – | Yes, but insufficient | No binding | No binding | No binding | No binding | Binding |

Reference: patent US20230181756A1, “CCR7 ANTIBODY DRUG CONJUGATES FOR TREATING CANCER” (Novartis AG, priority 2020, published 2023)
